Data as given in the nanobody polyreactivity screen of Harvey et al. (2022).

Test: yeast display, Sf9 membrane polyspecificity reagent, FACS + sequencing; frameworks hold sequencing errors
How it was run: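 A nanobody's polyreactivity label depends on the gate it was sorted from. Yeast display cells were stained with 10% biotinylated, detergent-solubilized Sf9 membrane reagent for 1 hour at 4 °C, enriched on streptavidin microbeads and sorted by FACS. The low and high (top ~1%) gates were set on anti-HA fluorescence for expression and streptavidin fluorescence for reagent binding.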
In the case of “QVQLVESGGGLVQAGGSLRLSCAASGYIFSYYAMGWYRQAPGKERELVAAINRSGGRTYYADSVKGRFTISRDNAKNTVYLQMNSLKPEDTAVYYCNAYSGLSYRYGYYYWGQGTQVTVSS”, the “polyreactivity (PSR sort gate)” value is reported as “high polyreactivity”. With “QVQLVESGGGLVQAGGSLRLSCAASGYIFTEYDMGWSRQAPGKERELVAANSESGGSTYYADSVKGRFTISRDNAKNTVYLQMNSLKPEDTAVYYCAADQYYYWYTHQSIGYDYWGQGTQVTVSS” the “polyreactivity (PSR sort gate)” value was “low polyreactivity”. With “QVQLVESGGGLVQAGGSLRLSCAASGYIFTSYAMGWYRQAPGKERELVATITTGGSTYYADSVKGRFTISRDNAKNTVYFQMNSLKPEDTAVYYCNAVLHGWYDYWGQGTQVTVSS” the “polyreactivity (PSR sort gate)” value was “low polyreactivity”. With “QVQLVESGGGLVQAGGSLRLSCAASGYIFTTYAMGWYRQAPGKERELVAAISSSGGRTSYADSVKGRFTISRDNAKNTVYLQMNSLKPEDTAVYYCNARVAPKSRRITYGYWGQGTQVTVSS” the “polyreactivity (PSR sort gate)” value was “high polyreactivity”. For “QVQLVESGGGLVQAGGSLRLSCAASGYIFTYYTMGWYRQAPGKERELVAAITSSGSRTRYADSVKGRFTISRDNAKNTVYLQMNSLKPEDTAVYYCAAVYRLKSGVEWRDSQFGYWGQGTQVTVSS”, the “polyreactivity (PSR sort gate)” value was “high polyreactivity”. In the case of “QVQLVESGGGLVQAGGSLRLSCAASGYIFVGNAMGWYRQAPGKERELVATIRSSTGNTYADSVKGRFTISRDNAKNTVYLQMNSLKPEDTAVYYCATVYEWPGWGREYGYWGQGTQVTVSS”, the “polyreactivity (PSR sort gate)” value is reported as “low polyreactivity”. For “QVQLVESGGGLVQAGGSLRLSCAASGYIFVHYAMGWYRQAPGKERDLVAAITRGGNTYYADSVKGRFTISRDNANNTVNLQMNSLKPEDTAVHYCAADNYGRGAGYDYWGQGSQVTVSS”, the “polyreactivity (PSR sort gate)” value was “high polyreactivity”. With “QVQLVESGGGLVQAGGSLRLSCAASGYIFVIYAMGWYSQAPGEERELVAAISWSGDTTYYADSVKGRFTISRDNAKNTVYLQMNSLQPEDTAVFYCNAETAYYQVDYCGQGTQVTVSS” the “polyreactivity (PSR sort gate)” value was “low polyreactivity”. With “QVQLVESGGGLVQAGGSLRLSCAASGYIFVKNAMGWYRQAPGKERELVAAISTRGGRTYYADSVKVRFTISRDNAKNTVSLQMNSLKPEDTAVYYCAAVHHTSYYDANSYGYWGQGTQVTVSS” the “polyreactivity (PSR sort gate)” value was “high polyreactivity”. For “QVQLVESGGGLVQAGGSLRLSCAASGYIFVRNAMGWYRQAPGKEREFVAAISGSGGSTYYADSVKGRFTISRDNAKNTVYFQMNSMKPEDTAVYYCAADYATVTWRGIAYDYWGQGTQVTVSS”, the “polyreactivity (PSR sort gate)” value was “low polyreactivity”. For “QVQLVESGGGLVQAGGSLRLSCAASGYIFVWYAMGWSRQAPGKERELVATISGGGGTYYADSVKGRFTISRDNAKNNVYFQMNSLNPEDTAVYYCNKGVGWTEASPYSPEYDYWGQGTQVSVSS”, the “polyreactivity (PSR sort gate)” value was “low polyreactivity”. For “QVQLVESGGGLVQAGGSLRLSCAASGYIFVYNAMGWYRQAPGKERELVAAITDGGGSTYADSVKGRFTISRDNAKNTVYLQMNSLNPEDTAVYYCAARYSDTTWYVLYYYWGQGTQVTVSS”, the “polyreactivity (PSR sort gate)” value was “low polyreactivity”. In the case of “QVQLVESGGGLVQAGGSLRLSCAASGYIFWINSMGWYRQAPGKERELVAAIRYSTGRTYYADSVKGRFTISRDNAKNTVYLQMNSQKPEDTAVYYCNARSWYIRGSQEYYYWGQGTQLTVSS”, the “polyreactivity (PSR sort gate)” value is reported as “high polyreactivity”. In the case of “QVQLVESGGGLVQAGGSLRLSCAASGYIFWWNAMGWYRQAPGKERELVAGISWSGSPTYYADSVKGRFTITRDNAKNTVYLQMNSLKPEDTAVYYCNAAAITLYDYDYWGQGTQVTVSS”, the “polyreactivity (PSR sort gate)” value is reported as “low polyreactivity”. With “QVQLVESGGGLVQAGGSLRLSCAASGYIFYDNAMGWYRQAPGKERELVAAISASGGDTYYADSVKGRFTISRDNAKNTVYLQMNSLKPEDTAVYYCAADLITYAMEFWGQGTQVTVSS” the “polyreactivity (PSR sort gate)” value was “low polyreactivity”. For “QVQLVESGGGLVQAGGSLRLSCAASGYIFYFYAMGWYRQAPGKERELVAAITSVGSTKYADSVKGRFTISRDNAKNTVYLQMNSLKPEDTAVYYCAARRWRSYYYWGQGTQVTVSS”, the “polyreactivity (PSR sort gate)” value was “high polyreactivity”. With “QVQLVESGGGLVQAGGSLRLSCAASGYIFYHYAMGWYRQAPGKERELVATISLGGGRTYYADSVKGRFTISRDNAKNTVYLQMNSLKPEDTAVYYCAAKQYGYYSDYYYWGQGTQVTVSS” the “polyreactivity (PSR sort gate)” value was “high polyreactivity”. In the case of “QVQLVESGGGLVQAGGSLRLSCAASGYIFYNAMGWYRQAPGKERELVAAISSSGGTTYYADSVKGRFTISRDNAKNTVFLQMNSLKPEDTAVYYCAATFRKRYPSRYDSWGQGTQVTVSS”, the “polyreactivity (PSR sort gate)” value is reported as “low polyreactivity”. For “QVQLVESGGGLVQAGGSLRLSCAASGYIFYNYAMGWYRQAPGKERELVAAISRRGGSTYYADSVKGRFTISRDNAKNTVYLEMNSLKPEDTAVYYCAAKQYGWNLYGYWGQGTQVTVSS”, the “polyreactivity (PSR sort gate)” value was “high polyreactivity”. For “QVQLVESGGGLVQAGGSLRLSCAASGYIFYRYTMGWYRQAPGKERELVAAISFRGGTTYYADSVKGRFTISRDNAKNTVYLQMNSLKPEDTAVYYCAARYGYYTSDYKYYYWGQGTQVTVSS”, the “polyreactivity (PSR sort gate)” value was “high polyreactivity”. For “QVQLVESGGGLVQAGGSLRLSCAASGYIFYTYAMGWYRQAPGKERELVAGINRGDSTNYADSVKGRFTISRDNAKNTVYLQMNSLKPEDTAVYYCNARQRTYYRTHRIRHKGNGYWGQGTQVTVSS”, the “polyreactivity (PSR sort gate)” value was “low polyreactivity”. With “QVQLVESGGGLVQAGGSLRLSCAASGYILFAYAMGWYRQAPGKERELVATITTSGGITYYADSVKGRFTISRDNAKNTVYLQMNSLKPDDTAVYYCAAAEGCGLVTYDYWGQGTQVTVSS” the “polyreactivity (PSR sort gate)” value was “low polyreactivity”. For “QVQLVESGGGLVQAGGSLRLSCAASGYILRPYSKVWYRQSPGKERELLASISRSSGNTFYADSVKGRFTISRDNAKNSVYLEMNSLKPDDSAVYYCAKDRSQRDLVYFPRVIYRMDYWGQGTQVNVSS”, the “polyreactivity (PSR sort gate)” value was “high polyreactivity”. In the case of “QVQLVESGGGLVQAGGSLRLSCAASGYILRRNAMGWYRKAPGKERELVARINSSGGSTYYADSVKGRFTISRDNAKNTVYLQMNSLKPEDTAVYYCAKSYYRGRDYWGQGTQVTVSS”, the “polyreactivity (PSR sort gate)” value is reported as “high polyreactivity”. For “QVQLVESGGGLVQAGGSLRLSCAASGYILRSHAMGWYRQAPGKEWEFVAAITYSGGSTYYADSVKGRFTISRDNAKNTVYLQLNSLKPEVTAVYYCSKTTRYPRGYGYWGQGTQVTVSS”, the “polyreactivity (PSR sort gate)” value was “low polyreactivity”. In the case of “QVQLVESGGGLVQAGGSLRLSCAASGYILYINTMGWYRQAPGKERELVAAITYSGASTYYADSVKGRFTISRDNAKNTVYLQMNSLKPEDNGVYYCAADGYYGGYNYWGQGTQVTVSS”, the “polyreactivity (PSR sort gate)” value is reported as “low polyreactivity”. With “QVQLVESGGGLVQAGGSLRLSCAASGYIPYCYAMGWYRQAPGKERELVAAISSGGNTYYADSVKGRFTISRDNAKNTVYLQMNSLKPEDTAVYYCAAEFRNYIFHYKYNYWGQGTQVTVSS” the “polyreactivity (PSR sort gate)” value was “high polyreactivity”. For “QVQLVESGGGLVQAGGSLRLSCAASGYISGVYPMGWYRQAPGKERELVAAITKRGGNTYYADSVKGRFTISRDNAKNTVYLQMNSLKAEDTAVYYCAKKTAGHPWGPIYDYWGQGTQVTVSS”, the “polyreactivity (PSR sort gate)” value was “high polyreactivity”. In the case of “QVQLVESGGGLVQAGGSLRLSCAASGYIVRNAMGWYRQAPGKERQLVAAISRRGGSTYYADSVKGRFTISRDNAKNTVYLQLNSLKPEDTAVYYCAKDKVIPSFDADYYDWGQGTQVTVSS”, the “polyreactivity (PSR sort gate)” value is reported as “high polyreactivity”. In the case of “QVQLVESGGGLVQAGGSLRLSCAASGYIYIRNAMGWYRQAPGKERELVAAISCTGGSTYYADSVKGRFTISRDNAKNTVYLQMKILKPEDTAVYYCNKYYRAWLLWDYGYWGQGTQVTVSS”, the “polyreactivity (PSR sort gate)” value is reported as “high polyreactivity”.
